Target: human Cul3 N-terminal domain (NTD, residues M1-L388) with the engineered mutations I342R and L346D (human, UniProt Q13618 1-388, I342R | L346D)
Test: ITC

Chain of human Cul3 N-terminal domain (NTD, residues M1-L388) with the engineered mutations I342R and L346D (Q13618 1-388 I342R/L346D): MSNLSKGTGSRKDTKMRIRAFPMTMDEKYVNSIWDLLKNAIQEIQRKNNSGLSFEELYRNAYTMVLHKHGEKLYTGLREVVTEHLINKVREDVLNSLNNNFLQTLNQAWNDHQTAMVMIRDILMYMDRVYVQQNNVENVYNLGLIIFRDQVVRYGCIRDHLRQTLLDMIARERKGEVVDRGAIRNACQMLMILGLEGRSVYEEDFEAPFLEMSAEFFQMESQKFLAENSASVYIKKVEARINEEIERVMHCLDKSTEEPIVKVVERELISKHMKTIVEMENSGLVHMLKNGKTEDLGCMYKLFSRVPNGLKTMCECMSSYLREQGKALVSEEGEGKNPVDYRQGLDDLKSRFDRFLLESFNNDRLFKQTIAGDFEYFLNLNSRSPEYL

Kd: 12 nM
B1: KCTD17 BTB + CTD multi-domain construct (residues G20-Q220), tag cleaved (domain or fragment)
chain: SMGAGGRAAGGWGKWVRLNVGGTVFLTTRQTLCREQKSFLSRLCQGEELQSDRDETGAYLIDRDPTYFGPILNFLRHGKLVLDKDMAEEGVLEEAEFYNIGPLIRIIKDRMEEKDYTVTQVPPKHVYRVLQCQEEELTQMVSTMSDGWRFEQLVNIGSSYNYGSEDQAEFLCVVSKELHSTPNGLSSESSRKTKSTEEQLEEQ

Source: paper PMC5664961 (2017)
